Test results published in paper PMC4002113, “The p97-FAF1 Protein Complex Reveals a Common Mode of p97 Adaptor Binding*” (The Journal of Biological Chemistry, 2014).
Values joined by “and” are separate entries in the source; they are usually repeats but may differ in a detail not shown here. Identical values can stand only once.

What was measured:
[1] = molecular target: the molecule itself; experiment: native MS; full-length FAF1 at 10 μM in 200 mM ammonium acetate pH 7.5; Q-ToF modified for high mass detection
[2] = molecular target: T1, C-terminally His-tagged full-length p97 (residues 1–806) (murine, UniProt Q01853 1-806); experiment: MST; 0.06 μM dye-labelled FAF1 kept constant, full-length p97 titrated between 135 and 0.0041 μM; 20 mM HEPES, 150 mM KCl, pH 7.4; 30 °C; average of two experiments, Hill equation fit; settings: both partners purified
T1 construct: p97 (VCP), murine, full length, residues 1–806, in PET22b; Hexamer, with a minor dodecamer, by SV-AUC; also called VCP; valosin-containing protein
T1 sequence (Q01853 whole entry, the tested form may be a part): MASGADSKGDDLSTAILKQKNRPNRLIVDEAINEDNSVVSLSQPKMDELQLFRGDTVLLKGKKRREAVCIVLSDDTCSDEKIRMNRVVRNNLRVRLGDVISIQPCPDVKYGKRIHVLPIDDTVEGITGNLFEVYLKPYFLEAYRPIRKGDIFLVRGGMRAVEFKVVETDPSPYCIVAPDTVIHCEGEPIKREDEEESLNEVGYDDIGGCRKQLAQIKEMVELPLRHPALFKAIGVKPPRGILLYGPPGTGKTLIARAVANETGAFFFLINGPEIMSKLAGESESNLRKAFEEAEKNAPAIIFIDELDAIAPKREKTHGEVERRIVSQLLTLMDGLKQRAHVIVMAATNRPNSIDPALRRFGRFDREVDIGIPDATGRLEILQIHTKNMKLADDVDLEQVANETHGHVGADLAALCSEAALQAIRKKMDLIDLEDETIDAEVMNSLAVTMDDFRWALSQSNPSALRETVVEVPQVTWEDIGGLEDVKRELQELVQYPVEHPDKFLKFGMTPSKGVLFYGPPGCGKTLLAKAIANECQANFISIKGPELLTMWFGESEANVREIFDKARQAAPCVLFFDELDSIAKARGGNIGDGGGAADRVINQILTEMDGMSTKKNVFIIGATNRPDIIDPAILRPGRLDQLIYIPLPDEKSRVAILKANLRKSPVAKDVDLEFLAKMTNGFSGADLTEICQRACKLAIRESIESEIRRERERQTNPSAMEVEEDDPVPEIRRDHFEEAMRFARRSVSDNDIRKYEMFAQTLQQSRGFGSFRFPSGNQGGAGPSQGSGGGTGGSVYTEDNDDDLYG

[3] = molecular target: T1, C-terminally His-tagged full-length p97 …; experiment: ITC; full-length p97 in the cell at 10–50 μM, FAF1 or FAF1 truncation as titrant at 7.5 to 10 times the cell concentration; 20 mM HEPES, 150 mM KCl, pH 7.4; 30 °C; average of two measurements; settings: both partners purified
[4] = molecular target: the molecule itself; experiment: cross-linking; 15 μM FAF1 or truncation in SEC buffer with ethyl glycol bissuccinimidyl succinate (EGS), 15 min at room temperature, stopped with Tris, SDS-PAGE

Kd [2]	KD site 1 (two-site model) [3]	KD site 2 (two-site model) [3]	Kd [3]	stoichiometry N [3]	Binder	stoichiometry N [1]	stoichiometry N [4]
0.13 µM	0.8 µM	19 µM	5.2 µM	0.8 ± 0.03 FAF1 per p97	N-terminally His-tagged full-length FAF1 (natural protein, murine, UniProt P54731 1-649, looked up, NanoTemper495-N-hydroxysuccinimide blue/red dye label (in the MST only), Fas-associated factor 1 (FAF1), full length, in pProEx; the truncations end at residue 649; N-terminally His-tagged FAF1 was used for all experiments except nanogold labelling; also called Fas-associated factor 1; His-tagged FAF1; source: held on the nickel column from cleared lysate in the pull-down; not shown: His tag, N-terminal, kept) MASNMDREMILADFQACTGIENIDEAITLLEQNNWDLVAAINGVIPQENGILQSDFGGETMPGPTFDPASHPAPASTPSSSAFRPVMPSRQIVERQPRMLDFRVEYRDRNVDVVLEDSCTVGEIKQILENELQIPVPKMLLKGWKTGDVEDSTVLKSLHLPKNNSLYVLTPDLPPPSSSSHAGALQESLNQNFMLIITHREVQREYNLNFSGSSTVQEVKRNVYDLTSIPVRHQLWEGWPASATDDSMCLAESGLSYPCHRLTVGRRTSPVQTREQSEEQSTDVHMVSDSDGDDFEDASEFGVDDGEVFGMASSTLRKSPMMPENAENEGDALLQFTAEFSSRYGDCHPVFFIGSLEAAFQEAFYVKARDRKLLAIYLHHDESVLTNVFCSQMLCAESIVSYLSQNFITWAWDLTKDTNRARFLTMCNRHFGSVIAQTIRTQKTDQFPLFLIIMGKRSSNEVLNVIQGNTTVDELMMRLMAAMEIFSAQQQEDIKDEDEREARENVKREQDEAYRLSLEADRAKREAHEREMAEQFRLEQIRKEQEEEREAIRLSLEQALPPEPKEENAEPVSKLRIRTPSGEFLERRFLASNKLQIVFDFVASKGFPWDEFKLLSTFPRRDVTQLDPNKSLLEVNLFPQETLFLQAKE	2 and 3	
			3.9 µM	0.98 ± 0.1 FAF1-UBX per p97	FAF1-UBX(550–649) (domain or fragment, murine, UniProt P54731 550-649, looked up, Fas-associated factor 1 (FAF1), residues 550–649 (UBX domain), in pGEx; also called UBX domain of FAF1; source: E. coli Rosetta 2 (autoinduction), purified (GSTrap, GST cleaved with HRV 3C, size-exclusion chromatography)) EAIRLSLEQALPPEPKEENAEPVSKLRIRTPSGEFLERRFLASNKLQIVFDFVASKGFPWDEFKLLSTFPRRDVTQLDPNKSLLEVNLFPQETLFLQAKE		
	0.7 µM	12 µM	4.9 µM	0.89 ± 0.3 FAF1-CC-UBX per p97	FAF1-CC-UBX(491–649) (domain or fragment, murine, UniProt P54731 491-649, looked up, Fas-associated factor 1 (FAF1), residues 491–649 (coiled-coil and UBX domains), in pGEx; also called coiled-coil and UBX domains of FAF1; source: E. coli Rosetta 2 (autoinduction), purified (GSTrap, GST cleaved with HRV 3C, size-exclusion chromatography)) QEDIKDEDEREARENVKREQDEAYRLSLEADRAKREAHEREMAEQFRLEQIRKEQEEEREAIRLSLEQALPPEPKEENAEPVSKLRIRTPSGEFLERRFLASNKLQIVFDFVASKGFPWDEFKLLSTFPRRDVTQLDPNKSLLEVNLFPQETLFLQAKE		3
